The test system of one series is rSis7d. The series can be described thus: BLI. Conditions: BLI: 20 mM Tris-HCl pH 6.8, 100 mM KCl, 1 mM EDTA, 0.05% Tween-20, 30°C; pull-down: 10 mM HEPES pH 7.6, 100 mM KCl, 2.5 mM MgCl2, 0.1 mg/mL BSA, room ….
Series [1] has as its system Sis7dΔaKMT (native, unmodified) (Sulfolobus islandicus ΔaKMT). Briefly: BLI. Conditions: BLI: 20 mM Tris-HCl pH 6.8, 100 mM KCl, 1 mM EDTA, 0.05% Tween-20, 30°C; pull-down: 10 mM HEPES pH 7.6, 100 mM KCl, 2.5 mM MgCl2, 0.1 mg/mL BSA, room ….
Series [2] concerns Sis7dWT (native, methylated) (Sulfolobus islandicus E234). Briefly: BLI. Conditions: BLI: 20 mM Tris-HCl pH 6.8, 100 mM KCl, 1 mM EDTA, 0.05% Tween-20, 30°C; pull-down: 10 mM HEPES pH 7.6, 100 mM KCl, 2.5 mM MgCl2, 0.1 mg/mL BSA, room ….
Another series deals with T1, Cren7 K48Q K48Q (UniProt C3NHU3).
T1 sequence: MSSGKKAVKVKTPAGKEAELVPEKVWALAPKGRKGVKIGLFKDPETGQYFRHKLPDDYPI
The series can be described thus: DNA-cellulose pull-down (bridging). Conditions: BLI: 20 mM Tris-HCl pH 6.8, 100 mM KCl, 1 mM EDTA, 0.05% Tween-20, 30°C; pull-down: 10 mM HEPES pH 7.6, 100 mM KCl, 2.5 mM MgCl2, 0.1 mg/mL BSA, room ….

The next series deals with T2, Cren7 K31Q K31Q (UniProt C3NHU3).
T2 sequence: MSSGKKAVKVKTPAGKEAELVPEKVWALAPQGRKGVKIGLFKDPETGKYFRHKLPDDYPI
Briefly: DNA-cellulose pull-down (bridging). The following applies: BLI: 20 mM Tris-HCl pH 6.8, 100 mM KCl, 1 mM EDTA, 0.05% Tween-20, 30°C; pull-down: 10 mM HEPES pH 7.6, 100 mM KCl, 2.5 mM MgCl2, 0.1 mg/mL BSA, room ….

For series [3], the target named is T3, rCren7 (UniProt C3NHU3 1-60).
T3 sequence: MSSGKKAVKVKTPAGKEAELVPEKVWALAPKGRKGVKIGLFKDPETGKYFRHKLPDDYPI
Briefly: DNA-cellulose pull-down (bridging). Conditions: dsDNA-cellulose, 2.5 mM MgCl2, BLI: 20 mM Tris-HCl pH 6.8, 100 mM KCl, 1 mM EDTA, 0.05% Tween-20, 30°C, pull-down: 10 mM HEPES pH 7.6, 100 mM KCl, 2.5 mM MgCl2, 0.1 mg/mL BSA, room ….

Series [4] concerns the target T4, Cren7WT (native, methylated) (Sulfolobus islandicus E234) (UniProt C3NHU3).
T4 sequence: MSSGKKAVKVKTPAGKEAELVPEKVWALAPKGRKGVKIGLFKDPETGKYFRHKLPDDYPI
Briefly: DNA-cellulose pull-down (bridging). Conditions: BLI: 20 mM Tris-HCl pH 6.8, 100 mM KCl, 1 mM EDTA, 0.05% Tween-20, 30°C; pull-down: 10 mM HEPES pH 7.6, 100 mM KCl, 2.5 mM MgCl2, 0.1 mg/mL BSA, room ….

The target of another series is T5, Cren7 K24Q K24Q (UniProt C3NHU3).
T5 sequence: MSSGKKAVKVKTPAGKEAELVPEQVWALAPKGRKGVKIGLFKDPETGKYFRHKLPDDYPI
Briefly: DNA-cellulose pull-down (bridging). The following applies: BLI: 20 mM Tris-HCl pH 6.8, 100 mM KCl, 1 mM EDTA, 0.05% Tween-20, 30°C; pull-down: 10 mM HEPES pH 7.6, 100 mM KCl, 2.5 mM MgCl2, 0.1 mg/mL BSA, room ….

A further series deals with T6, Cren7 K42Q K42Q (UniProt C3NHU3).
T6 sequence: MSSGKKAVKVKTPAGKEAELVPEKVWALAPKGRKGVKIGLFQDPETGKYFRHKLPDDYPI
Briefly: DNA-cellulose pull-down (bridging). Conditions: BLI: 20 mM Tris-HCl pH 6.8, 100 mM KCl, 1 mM EDTA, 0.05% Tween-20, 30°C; pull-down: 10 mM HEPES pH 7.6, 100 mM KCl, 2.5 mM MgCl2, 0.1 mg/mL BSA, room ….

The next series deals with T7, Cren7 K31Q (UniProt C3NHU3 1-60, K31Q).
T7 sequence: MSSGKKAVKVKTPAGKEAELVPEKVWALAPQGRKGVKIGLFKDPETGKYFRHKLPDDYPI
The series can be described thus: BLI; BLI: 20 mM Tris-HCl pH 6.8, 100 mM KCl, 1 mM EDTA, 0.05% Tween-20, 30°C; pull-down: 10 mM HEPES pH 7.6, 100 mM KCl, 2.5 mM MgCl2, 0.1 mg/mL BSA, room temperature. Conditions: protein: recombinant; label: 5' biotin on strand 1; blunt. Background: Biolayer interferometry detects binding as a change in optical thickness at a sensor tip.

A further series concerns the target T8, Cren7 K24Q (UniProt C3NHU3 1-60, K24Q).
T8 sequence: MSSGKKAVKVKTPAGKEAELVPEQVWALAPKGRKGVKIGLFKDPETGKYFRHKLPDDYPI
The description is as above. The following applies: protein: recombinant; label: 5' biotin on strand 1; blunt.

Series [5] concerns the target T3, rCren7. The series is described as above. The following applies: protein: recombinant; label: 5' biotin on strand 1; blunt.
In a further series the target is T9, Cren7 K42Q (UniProt C3NHU3 1-60, K42Q).
T9 sequence: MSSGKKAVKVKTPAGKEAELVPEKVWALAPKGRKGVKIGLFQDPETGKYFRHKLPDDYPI
Described as above. The following applies: protein: recombinant; label: 5' biotin on strand 1; blunt.

Another series deals with T10, Cren7 K48Q (UniProt C3NHU3 1-60, K48Q).
T10 sequence: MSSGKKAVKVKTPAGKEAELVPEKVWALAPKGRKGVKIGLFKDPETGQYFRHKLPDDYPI
The series is described as above. The following applies: protein: recombinant; label: 5' biotin on strand 1; blunt.

What is called Kd is the constant that tells how readily two partners part at equilibrium. “TAGAGCCCTAGTCTTCCAAACTAGCTACGC (double strand) [D30]”: the Kd with rSis7d is 1040 nM; in series [1] it was 1370 nM; in series [2], 1640 nM.

On to pBR322, for which the binding signal with Cren7 K48Q K48Q, in the series with Cren7 K31Q K31Q, in the series with Cren7 K24Q K24Q and with Cren7 K42Q K42Q was < 10 % of rCren7 each time. In addition, the binding signal (% input pulled down) with rCren7 [3] (5 uM protein) is 18; with rCren7 [3] (10 uM protein) it was 35. In [4], the binding signal (% (barely detected)) was under 10.

B1: D30 (dsDNA)
DNA 1: TAGAGCCCTAGTCTTCCAAACTAGCTACGC
DNA 2: GCGTAGCTAGTTTGGAAGACTAGGGCTCTA
B1: the Kd with Cren7 K31Q worked out at 103 nM; with Cren7 K24Q, 217 nM; with rCren7 [5] it was 125 nM; with Cren7 K42Q, 1120 nM; with Cren7 K48Q, 199 nM.

Values taken from PMC8927968, “Lysine Methylation Modulates the Interaction of Archaeal Chromatin Protein Cren7 With DNA”.
